According to US12365732 (23ANDME, dated 2025):

Target: T1, hCD155 (Table 28) (human, UniProt P15151 21-343, limits assumed)
T1 sequence (looked up): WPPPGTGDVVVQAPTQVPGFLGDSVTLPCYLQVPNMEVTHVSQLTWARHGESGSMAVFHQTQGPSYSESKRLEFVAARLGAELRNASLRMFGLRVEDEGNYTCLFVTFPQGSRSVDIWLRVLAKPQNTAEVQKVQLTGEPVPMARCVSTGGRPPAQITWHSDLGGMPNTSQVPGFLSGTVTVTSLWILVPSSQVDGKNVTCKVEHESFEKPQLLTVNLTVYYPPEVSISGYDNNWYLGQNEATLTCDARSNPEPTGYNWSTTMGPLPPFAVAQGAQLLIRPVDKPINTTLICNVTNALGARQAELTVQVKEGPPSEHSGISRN
Assay: SPR 25C, biotin-CD226-His captured, steady state fitting
Protocol: To determine the binding affinity to hu-CD226 and cy-CD226 of mAb1.v7.NGS8, h10G1, hCD155 and anti-hCD226 antibody DX11 (Abcam, cat #Ab33397), SPR measurement with a BIACORE™ 8K instrument was performed. Briefly, a 1:4 dilution of Biotin CAPture Reagent (GE Healthcare) into HBS-EP buffer (0.01 M HEPES pH 7.4, 0.15 M NaCl, 3 mM EDTA, 0.005% Surfactant P20) was applied to the chip at 2 µL/min flow rate. For the kinetics measurements, 5 µg/ml of biotinylated hu-CD226 His tag (Sino biological, cat #10565-H08H) and cy-CD226 His tag (Arco biosystems, cat #DN1-052H9) was captured at 10 µL/min to achieve ~50 response units in the second flow cell (FC2). FC1 was kept as a reference. Next, 3-fold serial dilutions of IgG in HBS-P buffer (0.01 M HEPES pH 7.4, 0.15 M NaCl, 0.005% surfactant P20) from low (1.3 nM) to high (1000 nM) concentration were injected (flow rate: 30 µL/min) at 25° C. The sensorgram was recorded and subject to reference and buffer subtraction before evaluating by BIACORE® 8K Evaluation Software (version 1.1.1.7442). Association rates ($kon$) and dissociation rates ($koff$) were calculated using a simple one-to-one Langmuir binding model. The equilibrium dissociation constant (K_D) value was calculated as the ratio of $koff/kon$. […]

Kd: 67.5 nM
B1: cy-CD226 His tag (receptor, cynomolgus monkey)
chain: EEVLWHTSVPFAENMSLECVYPSVGILTQVEWFKIGTEKDSIAIFSPTHGMVIRKPYAERVYFLNSTMASNNMTLFFRNASEDDVGYYSCSLYTYPQGTWQKVIQVVQSDGFEAAVPPNSHIVSEPGKNITLTCQPQMTWPVQEVRWEKVQPHQIDLLTYCDLVHGRNFTSKFPRQIVSNCSHGSWSFIVVPDVTASDSGLYRCHLQASAGENETFVMRLTVAEGQTDN
modifications: biotinylated
